Measurements from US12427210B2, “Compounds comprising a fibroblast activation protein ligand and use thereof” (priority 2019, dated 2025).

Legend:
[1] = target: Cathepsin V (Homo sapiens (Human)) (UniProt O60911)
[2] = target: Ubiquitin carboxyl-terminal hydrolase 5 (Homo sapiens (Human)) (UniProt P45974)
[3] = target: DPP7 (Homo sapiens (Human)) (UniProt Q9UHL4)
[4] = target: T1, Ubiquitin carboxy-terminal hydrolase L3 (Homo sapiens (Human)) (UniProt P15374)
T1 sequence: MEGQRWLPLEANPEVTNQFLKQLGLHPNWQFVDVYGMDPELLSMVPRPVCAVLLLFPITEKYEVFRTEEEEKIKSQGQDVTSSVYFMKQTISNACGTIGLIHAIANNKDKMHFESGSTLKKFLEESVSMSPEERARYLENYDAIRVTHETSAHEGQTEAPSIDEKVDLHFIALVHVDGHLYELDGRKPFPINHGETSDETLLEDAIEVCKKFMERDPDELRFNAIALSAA

[5] = target: T2, Caspase-6 (Homo sapiens (Human)) (UniProt P55212)
T2 sequence: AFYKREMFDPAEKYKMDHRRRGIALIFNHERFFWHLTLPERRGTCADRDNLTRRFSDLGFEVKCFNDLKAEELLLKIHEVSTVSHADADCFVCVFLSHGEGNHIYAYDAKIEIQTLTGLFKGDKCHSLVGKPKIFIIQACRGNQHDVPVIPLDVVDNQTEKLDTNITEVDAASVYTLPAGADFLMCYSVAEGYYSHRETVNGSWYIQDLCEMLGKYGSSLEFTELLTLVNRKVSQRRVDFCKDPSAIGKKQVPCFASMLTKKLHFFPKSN

[6] = target: T3, A20 (Homo sapiens (Human)) (UniProt P21580)
T3 sequence: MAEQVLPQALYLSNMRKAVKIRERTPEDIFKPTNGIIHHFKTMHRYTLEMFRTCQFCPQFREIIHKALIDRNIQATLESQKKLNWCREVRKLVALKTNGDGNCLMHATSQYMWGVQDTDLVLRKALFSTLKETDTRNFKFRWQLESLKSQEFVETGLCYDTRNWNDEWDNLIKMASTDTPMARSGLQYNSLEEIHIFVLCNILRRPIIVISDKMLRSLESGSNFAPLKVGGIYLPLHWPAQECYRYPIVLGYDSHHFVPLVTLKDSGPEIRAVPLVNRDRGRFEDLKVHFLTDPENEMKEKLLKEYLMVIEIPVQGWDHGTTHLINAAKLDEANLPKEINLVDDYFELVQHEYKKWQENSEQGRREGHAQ

[7] = target: Matrix metalloprotease 9 (mutant Q279R) (Homo sapiens (Human)) (UniProt P14780)
[8] = target: DPP8 (Homo sapiens (Human)) (UniProt Q6V1X1)
[9] = target: Beta secretase (Homo sapiens (Human)) (UniProt P56817)
[10] = target: Cathepsin L (Homo sapiens (Human)) (UniProt P07711)
[11] = target: T4, Renin (Homo sapiens (Human)) (UniProt P00797)
T4 sequence: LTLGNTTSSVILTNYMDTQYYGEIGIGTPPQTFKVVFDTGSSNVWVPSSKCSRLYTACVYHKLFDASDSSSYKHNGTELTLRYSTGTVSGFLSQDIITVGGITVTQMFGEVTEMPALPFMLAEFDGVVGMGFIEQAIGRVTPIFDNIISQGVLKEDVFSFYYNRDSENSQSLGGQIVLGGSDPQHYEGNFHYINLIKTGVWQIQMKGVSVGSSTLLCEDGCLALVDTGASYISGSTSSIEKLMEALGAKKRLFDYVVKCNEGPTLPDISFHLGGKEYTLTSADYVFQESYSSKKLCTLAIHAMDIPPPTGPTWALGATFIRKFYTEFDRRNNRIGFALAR

[12] = target: Ubiquitin carboxyl-terminal hydrolase 14 (Homo sapiens (Human)) (UniProt P54578)
[13] = target: Ubiquitin carboxyl-terminal hydrolase 7 (Homo sapiens (Human)) (UniProt Q93009)
[14] = target: serine protease NS3 (a.a. 3-181) from Hepatitis C virus genotype 2a (Hepatitis C virus genotype 2a)
[15] = target: Ubiquitin carboxy-terminal hydrolase L1 (Homo sapiens (Human)) (UniProt P09936)
[16] = target: Cathepsin S (Homo sapiens (Human)) (UniProt P25774)
[17] = target: serine protease NS3 (a.a. 3-181) from Hepatitis C virus genotype 1b (Hepatitis C virus genotype 1b)
[18] = target: serine protease NS3 (a.a. 3-181) from Hepatitis C virus genotype 1b (mutant D168V) (Hepatitis C virus genotype 1b)
[19] = target: T5, Caspase-3 (Homo sapiens (Human)) (UniProt P42574)
T5 sequence: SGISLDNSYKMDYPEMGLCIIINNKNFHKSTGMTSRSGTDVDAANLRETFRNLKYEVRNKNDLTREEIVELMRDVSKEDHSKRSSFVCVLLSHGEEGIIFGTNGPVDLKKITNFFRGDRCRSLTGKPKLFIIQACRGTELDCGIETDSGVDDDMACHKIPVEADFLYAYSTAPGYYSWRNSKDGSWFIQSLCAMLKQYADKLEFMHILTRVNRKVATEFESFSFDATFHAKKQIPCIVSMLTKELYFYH

[20] = target: Caspase-8 (Homo sapiens (Human)) (UniProt Q14790)
[21] = target: Matrix metalloprotease1 (Homo sapiens (Human)) (UniProt P03956)
[22] = target: Recombinant human DPP4 (R&D systems #9168-SE) (human) (UniProt P27487)
[23] = target: recombinant human PREP (R&D systems, #4308-SE) (human) (UniProt P48147)
recombinant human PREP (R&D systems, #4308-SE) (human), sequence (P48147 whole entry): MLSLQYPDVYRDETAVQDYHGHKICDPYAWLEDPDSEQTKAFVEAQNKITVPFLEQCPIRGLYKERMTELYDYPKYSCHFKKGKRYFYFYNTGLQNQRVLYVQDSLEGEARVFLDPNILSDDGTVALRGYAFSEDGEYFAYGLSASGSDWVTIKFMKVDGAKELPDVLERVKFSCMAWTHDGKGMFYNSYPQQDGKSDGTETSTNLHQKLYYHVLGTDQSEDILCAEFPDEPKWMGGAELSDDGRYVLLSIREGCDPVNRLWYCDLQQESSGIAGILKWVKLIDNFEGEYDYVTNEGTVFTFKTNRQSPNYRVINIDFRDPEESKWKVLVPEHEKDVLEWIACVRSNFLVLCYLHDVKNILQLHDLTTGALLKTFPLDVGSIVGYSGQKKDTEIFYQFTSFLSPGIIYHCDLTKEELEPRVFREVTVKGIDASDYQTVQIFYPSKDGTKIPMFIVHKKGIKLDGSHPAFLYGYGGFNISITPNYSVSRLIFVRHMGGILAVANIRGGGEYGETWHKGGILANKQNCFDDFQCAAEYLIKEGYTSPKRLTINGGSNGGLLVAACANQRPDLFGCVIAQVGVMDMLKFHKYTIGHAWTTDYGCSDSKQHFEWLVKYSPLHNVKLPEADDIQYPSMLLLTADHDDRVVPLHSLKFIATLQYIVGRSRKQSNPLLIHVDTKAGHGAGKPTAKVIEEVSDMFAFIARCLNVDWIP

Caspase-8 (Homo sapiens (Human)), sequence (Q14790 217-479 limits assumed): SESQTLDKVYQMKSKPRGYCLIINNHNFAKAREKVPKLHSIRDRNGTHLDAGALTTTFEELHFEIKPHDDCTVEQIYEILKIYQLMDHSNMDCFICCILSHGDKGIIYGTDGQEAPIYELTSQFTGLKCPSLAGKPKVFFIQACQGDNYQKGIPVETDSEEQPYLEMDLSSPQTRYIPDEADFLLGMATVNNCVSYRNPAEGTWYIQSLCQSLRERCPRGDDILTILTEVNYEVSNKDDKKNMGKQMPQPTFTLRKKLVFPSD
Ubiquitin carboxyl-terminal hydrolase 5 (Homo sapiens (Human)), sequence (P45974 whole entry): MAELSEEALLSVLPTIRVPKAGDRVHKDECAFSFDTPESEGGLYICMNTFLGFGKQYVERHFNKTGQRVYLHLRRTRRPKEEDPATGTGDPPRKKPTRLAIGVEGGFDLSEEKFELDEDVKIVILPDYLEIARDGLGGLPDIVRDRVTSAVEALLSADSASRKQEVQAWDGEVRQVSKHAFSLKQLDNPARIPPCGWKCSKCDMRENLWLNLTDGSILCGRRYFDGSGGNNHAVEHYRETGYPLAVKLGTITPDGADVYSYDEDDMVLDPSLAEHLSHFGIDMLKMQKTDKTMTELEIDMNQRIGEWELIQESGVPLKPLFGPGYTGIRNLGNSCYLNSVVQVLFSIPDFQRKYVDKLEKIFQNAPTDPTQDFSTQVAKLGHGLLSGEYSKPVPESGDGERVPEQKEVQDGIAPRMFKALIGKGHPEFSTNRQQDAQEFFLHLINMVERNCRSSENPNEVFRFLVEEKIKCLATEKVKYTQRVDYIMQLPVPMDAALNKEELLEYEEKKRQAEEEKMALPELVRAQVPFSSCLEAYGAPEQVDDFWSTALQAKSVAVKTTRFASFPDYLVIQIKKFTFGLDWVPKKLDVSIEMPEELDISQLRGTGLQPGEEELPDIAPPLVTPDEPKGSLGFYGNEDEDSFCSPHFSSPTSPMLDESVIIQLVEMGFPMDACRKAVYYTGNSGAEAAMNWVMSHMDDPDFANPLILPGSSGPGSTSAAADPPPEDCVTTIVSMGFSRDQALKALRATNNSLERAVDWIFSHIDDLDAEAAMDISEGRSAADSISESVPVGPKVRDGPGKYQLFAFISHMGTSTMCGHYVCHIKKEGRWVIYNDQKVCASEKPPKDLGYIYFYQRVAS
Matrix metalloprotease1 (Homo sapiens (Human)), sequence (P03956 100-469): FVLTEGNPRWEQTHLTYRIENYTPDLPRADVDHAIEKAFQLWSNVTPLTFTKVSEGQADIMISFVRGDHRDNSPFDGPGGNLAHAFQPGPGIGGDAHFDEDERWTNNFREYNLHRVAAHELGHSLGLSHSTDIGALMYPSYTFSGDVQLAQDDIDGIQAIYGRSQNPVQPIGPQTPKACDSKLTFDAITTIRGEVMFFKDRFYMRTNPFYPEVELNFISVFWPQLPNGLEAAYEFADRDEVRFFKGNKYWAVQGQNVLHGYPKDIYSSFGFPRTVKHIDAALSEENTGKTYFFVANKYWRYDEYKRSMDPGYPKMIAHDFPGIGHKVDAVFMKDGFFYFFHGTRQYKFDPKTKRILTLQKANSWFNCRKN

Substance | Percentage inhibition (%) (% inhibition at 10 µM) [1] | Percentage inhibition (%) (% inhibition at 10 µM) [2] | Percentage inhibition (%) (% inhibition at 10 µM) [3] | Percentage inhibition (%) (% inhibition at 10 µM) [4] | Percentage inhibition (%) (% inhibition at 10 µM) [5] | Percentage inhibition (%) (% inhibition at 10 µM) [6] | Percentage inhibition (%) (% inhibition at 10 µM) [7] | Percentage inhibition (%) (% inhibition at 10 µM) [8] | Percentage inhibition (%) (% inhibition at 10 µM) [9] | Percentage inhibition (%) (% inhibition at 10 µM) [10] | Percentage inhibition (%) (% inhibition at 10 µM) [11] | Percentage inhibition (%) (% inhibition at 10 µM) [12] | Percentage inhibition (%) (% inhibition at 10 µM) [13] | Percentage inhibition (%) (% inhibition at 10 µM) [14] | Percentage inhibition (%) (% inhibition at 10 µM) [15] | Percentage inhibition (%) (% inhibition at 10 µM) [16] | Percentage inhibition (%) (% inhibition at 10 µM) [17] | Percentage inhibition (%) (% inhibition at 10 µM) [18] | Percentage inhibition (%) (% inhibition at 10 µM) [19] | Percentage inhibition (%) (% inhibition at 10 µM) [20] | other results
Hex-[Cys(tMeBn(DOTA-AET))-Pro-Pro-Thr-Gln-Phe-Cys]-OH (3BP-3554) (peptide) | -1 | -2 | -7 | 0 | -3 | 0 | 2 | 11 | 7 | -6 | -1 | 2 | 1 | -40 | 4 | -23 | -9 | -17 | -1 | -3 | Percentage inhibition (%) (% inhibition at 10 µM) [21]: -7
Hex-[Cys(tMeBn(DOTA-PP))-Pro-Pro-Thr-Gln-Phe-Cys]-Asp-NH2 (3BP-3407) (peptide) | -18 | 46 | -3 | 14 | -1 | -4 | 2 | 5 | -5 | 6 | 3 | 5 | 5 | -2 | 4 | 18 | 5 | -6 | -2 | 0 | pIC50 (DPP4) [22]: < 6 pIC50; pIC50 (PREP) [23]: < 6 pIC50; Percentage inhibition (%) (% inhibition at 10 µM) [21]: 2
